Results taken from FireProtDB (doi:10.1021/bi048926x).
Values joined by “and” are separate entries in the source; they are usually repeats but may differ in a detail not shown here. Equal values may be shown once.

B1: Azurin, P00282 (parent)
chain: MLRKLAAVSLLSLLSAPLLAAECSVDIQGNDQMQFNTNAITVDKSCKQFTVNLSHPGNLPKNVMGHNWVLSTAADMQGVVTDGMASGLDKDYLKPDDSRVIAHTKLIGSGEKDSVTFDVSKLKEGEQYMFFCTFPGHSALMKGTLTLK

Variants of: B1
Settings: Pseudomonas aeruginosa (strain ATCC 15692 / DSM 22644 / CIP 104116 / JCM 14847 / LMG 12228 / 1C / PRS 101 / PAO1), pH 7, Thermal, reversible: No, structure 5AZU, whole UniProt chain shown
[1] = DSC, Potassium phosphate 100 mM

For MLRKLAAVSLLSLLSAPLLAAECSVDIQGNDQMQFNTNAITVDKSCKQFTVNLSHPGNLPKNVMGHNWVLSTAADMQGVVTCGMASGLDKDYLCPDDSRVIAHTKLIGSGEKDSVTFDVSKLKEGEQYMFFCTFPGHSALMKGTLTLK, the Tm (Absorbance, Phosphate 10 mM) was 78 °C and the “change of melting temperature, mutant - wild type (higher = more stable)” value (from here on “change of melting temperature, mutant”) (Absorbance, Phosphate 10 mM) was 0 °C.

With MLRKLAAVSLLSLLSAPLLAAECSVDIQGNDQMQFNTNAITVERSCKQFTVNLSHPGNLPKNVMGHNWVLSTAADMQGVVTDGMASGLDKDYLKPDDSRVIAHTKLIGSGEKDSVTFDVSKLKEGEQYMFFCTFPGHSALMKGTLTLR the Tm (Absorbance, Phosphate 10 mM) was 75 °C, the “change of melting temperature, mutant” value (Absorbance, Phosphate 10 mM) was -3 °C and the “change of melting temperature, mutant” value [1] was -1.2 °C and -0.9 °C and -1.1 °C.

In the case of MLRKLAAVSLLSLLSAPLLAAECSVDIQGNDQMQFNTNAITVEKSCKQFTVNLSHPGNLPKNVMGHNWVLSTAADMQGVVTDGMASGLDKDYLKPDDSRVIAHTKLIGSGEKDSVTFDVSKLKEGEQYMFFCTFPGHSALMKGTLTLR, the Tm (Absorbance, Phosphate 10 mM) is reported as 74 °C, the “change of melting temperature, mutant” value (Absorbance, Phosphate 10 mM) is reported as -4 °C and the “unfolding enthalpy (calorimetric)” value [1] is reported as 89.2 kcal/mol and 108 kcal/mol and 122 kcal/mol.

With MLRKLAAVSLLSLLSAPLLAAECSVDIQGNDQMQFNTNAITVDRSCKQFTVNLSHPGNLPKNVMGHNWVLSTAADMQGVVTDGMASGLDKDYLKPDDSRVIAHTKLIGSGEKDSVTFDVSKLKEGEQYMFFCTFPGHSALMKGTLTLK the Tm (Absorbance, Phosphate 10 mM) was 76 °C, the “change of melting temperature, mutant” value (Absorbance, Phosphate 10 mM) was -2 °C and the “change of melting temperature, mutant” value [1] was 0.8 °C and 0.6 °C and 1 °C. The “unfolding enthalpy (calorimetric)” value [1] was 124 kcal/mol and 150 kcal/mol and 75.5 kcal/mol.
